Patent US20090068103

Molecular target: Tenascin-C (TN-C) (Homo sapiens) (UniProt P24821)
Assay: FP
Conditions: 5'-C6 amine conjugated to MAG2-DO3A chelator; (CH2CH2O)6 spacer between GGGAGGACG and CGUCGC; 3'-3'-T cap; nitrocellulose filter binding, TN-C titrated 1.25e-7 to 6.35e-12 M

Tenascin-C (TN-C) (Homo sapiens), sequence (P24821 23-2201): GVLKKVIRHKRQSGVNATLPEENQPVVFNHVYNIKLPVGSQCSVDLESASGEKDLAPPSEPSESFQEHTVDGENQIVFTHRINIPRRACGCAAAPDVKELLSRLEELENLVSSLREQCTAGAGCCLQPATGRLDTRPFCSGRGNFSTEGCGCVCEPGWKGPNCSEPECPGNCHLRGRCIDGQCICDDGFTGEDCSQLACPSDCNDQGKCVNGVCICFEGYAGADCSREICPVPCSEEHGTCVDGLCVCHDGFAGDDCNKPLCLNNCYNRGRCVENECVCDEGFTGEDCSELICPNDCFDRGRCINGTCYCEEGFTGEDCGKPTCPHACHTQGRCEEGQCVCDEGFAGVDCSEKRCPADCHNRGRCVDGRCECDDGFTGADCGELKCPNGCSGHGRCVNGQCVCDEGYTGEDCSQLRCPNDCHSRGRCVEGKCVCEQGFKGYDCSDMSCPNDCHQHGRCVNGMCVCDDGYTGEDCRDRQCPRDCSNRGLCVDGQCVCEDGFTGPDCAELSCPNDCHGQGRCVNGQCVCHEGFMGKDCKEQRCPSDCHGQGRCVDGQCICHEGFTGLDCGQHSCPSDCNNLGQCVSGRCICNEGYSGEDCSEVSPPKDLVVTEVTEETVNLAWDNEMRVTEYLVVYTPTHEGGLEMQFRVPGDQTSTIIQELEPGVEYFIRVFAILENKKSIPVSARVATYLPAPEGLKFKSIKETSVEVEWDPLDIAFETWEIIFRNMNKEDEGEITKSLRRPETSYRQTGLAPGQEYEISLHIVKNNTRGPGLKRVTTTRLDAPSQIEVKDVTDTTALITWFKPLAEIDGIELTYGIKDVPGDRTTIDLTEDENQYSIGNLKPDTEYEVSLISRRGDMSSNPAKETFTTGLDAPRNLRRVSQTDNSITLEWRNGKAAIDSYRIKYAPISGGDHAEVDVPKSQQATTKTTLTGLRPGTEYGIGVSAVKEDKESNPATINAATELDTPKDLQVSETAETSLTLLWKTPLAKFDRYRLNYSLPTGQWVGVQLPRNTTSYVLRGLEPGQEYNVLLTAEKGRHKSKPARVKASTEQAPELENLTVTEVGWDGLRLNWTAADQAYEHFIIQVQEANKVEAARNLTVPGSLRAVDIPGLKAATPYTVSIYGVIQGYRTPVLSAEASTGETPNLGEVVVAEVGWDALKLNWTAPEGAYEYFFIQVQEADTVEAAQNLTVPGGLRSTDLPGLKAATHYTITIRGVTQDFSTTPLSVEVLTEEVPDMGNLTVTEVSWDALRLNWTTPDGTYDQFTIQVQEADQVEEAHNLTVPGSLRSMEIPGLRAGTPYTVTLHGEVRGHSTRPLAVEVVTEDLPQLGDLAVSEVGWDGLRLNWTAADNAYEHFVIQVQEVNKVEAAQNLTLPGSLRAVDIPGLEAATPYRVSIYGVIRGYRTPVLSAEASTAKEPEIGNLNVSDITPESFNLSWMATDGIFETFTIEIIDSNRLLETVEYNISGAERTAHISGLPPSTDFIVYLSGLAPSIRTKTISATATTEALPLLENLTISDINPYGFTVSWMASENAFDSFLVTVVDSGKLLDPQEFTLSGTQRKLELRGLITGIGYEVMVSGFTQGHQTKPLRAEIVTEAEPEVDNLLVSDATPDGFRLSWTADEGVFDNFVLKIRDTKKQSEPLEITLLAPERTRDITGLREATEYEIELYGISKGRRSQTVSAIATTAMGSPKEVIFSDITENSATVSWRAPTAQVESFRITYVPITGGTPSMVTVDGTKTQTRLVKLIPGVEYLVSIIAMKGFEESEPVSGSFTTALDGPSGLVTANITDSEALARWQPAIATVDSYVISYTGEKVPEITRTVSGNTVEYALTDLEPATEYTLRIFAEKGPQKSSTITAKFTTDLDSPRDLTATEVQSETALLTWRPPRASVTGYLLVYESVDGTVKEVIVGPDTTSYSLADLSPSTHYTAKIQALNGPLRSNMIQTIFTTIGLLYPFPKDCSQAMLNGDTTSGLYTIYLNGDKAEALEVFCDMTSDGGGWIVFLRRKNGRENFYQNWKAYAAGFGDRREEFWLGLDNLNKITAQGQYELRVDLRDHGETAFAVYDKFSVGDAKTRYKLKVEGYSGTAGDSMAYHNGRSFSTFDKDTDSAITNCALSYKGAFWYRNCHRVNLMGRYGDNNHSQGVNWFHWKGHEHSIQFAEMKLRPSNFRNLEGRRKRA

## GGGAGGACGCGUCGCCGUAAUGGAUGUUUUGCUCCCUG [111In-TTA1-MAG2-DO3A]
  Kd: 1 nM
